Reference: patent US20190119357A1, “MESSENGER RIBONUCLEIC ACIDS FOR THE PRODUCTION OF INTRACELLULAR BINDING POLYPEPTIDES AND METHODS OF USE THEREOF” (ModernaTX, Inc., priority 2015, published 2019)

How the values were obtained:
cells = test: Half-life determination by bio-orthogonal non-canonical amino acid tagging (BONCAT); assay type: cell-based; settings: SQT protein scaffold in cells, post-transfection, one-phase decay fit
Experimental: The half-life of the SQT protein scaffold in cells was determined by Bio-orthogonal non-canonical amino acid tagging (BONCAT). […] AHA contains a reactive group (a terminal azide), which can be conjugated to a fluorophore via click chemistry. Newly synthesized proteins in the cells were separated by molecular weight (SDS-PAGE) at various time points post-transfection and visualized via in-gel fluorescence. The fluorescent signal was quantified using Li-cor's Image Studio (Version 3.1). One-phase decay nonlinear regression fit was by GraphPad Prism (Version 6).

[1] = Pharmacokinetics of intracellular expression of SQT scaffold polypeptide in mouse livers in vivo; parameters: species or system mice; settings: mouse liver
Experimental: Studies were performed to assess the pharmacokinetics of intracellular expression of the SQT scaffold polypeptide in mouse livers in vivo following multiple dosing. Mice were dosed on day 0 and on day 7 with an LNP carrying an mmRNA construct encoding the SQT scaffold polypeptide. The construct lacked any presenting polypeptides at any of the insertion sites (i.e., the construct was a “dummy” construct of only the scaffold), and was labeled with a FLAG epitope tag. Following dosing with the LNPs, liver protein was recovered and analyzed for expression of the SQT scaffold using the FLAG epitope tag for detection and quantification by quantitative Western blot analysis (LICOR/Western). Protein amounts were normalized to vinculin.

B1: SQT scaffold: Stefin A Quadruple Mutant-Tracy scaffold polypeptide (SEQ ID NO: 70) expressed from a dummy mmRNA construct (protein)
chain: MIPRGLSEAKPATPEIQEIVDKVKPQLEEKTNETYGKLEAVQYKTQVLASTNYYIKVRAGDNKYMHLKVFNGPPGQNADRVLTGYQVDKNKDDELTGF
modifications: Synthetic SteA SQT scaffold amino acid sequence
half-life (cells): 33.31 h | time to peak protein levels ([1]; first dose (day 0) of LNP): approximately 20 hours | time at which protein levels were essentially finished ([1]; post-injection of first dose): approximately 160 hours | time to peak protein levels ([1]; second dose (day 7), post-injection): approximately 20 hours
